Tests used:
[1] = molecular target: T1, PvTAT (tyrosine aminotransferase of Prunella vulgaris) (Prunella vulgaris, UniProt A0A0U1ZFM1); experiment: phenylpyruvate absorbance at […] nm, nonlinear Michaelis-Menten fit; type: biochemical; conditions: 10 mM α-ketoglutarate; 0.1 mM PLP, 0.75 mM EDTA, 125 mM potassium phosphate pH 8.0, 30 °C
T1 construct: gene tat; E. coli Rosetta (DE3); cloning primers translate to N-terminus MELQSSAQ and C-terminus FCERHSY

purified protein [2] = substrate: O=C(O)CC(=O)C(=O)O; experiment: purified protein; type: biochemical, Prunella vulgaris; conditions: 5.5 mM L-Tyr as amino donor, 0.1 mM PLP, 0.75 mM EDTA, 125 mM potassium phosphate pH 8.0, 30 °C
purified protein [3] = substrate: O=C(O)C(=O)Cc1ccc(O)cc1; experiment: purified protein; type: biochemical, Prunella vulgaris; conditions: 10 mM L-Glu as amino donor, 0.3 mM NAD, 0.3 mM CoA, 0.75 mM EDTA, 125 mM potassium phosphate pH 8.0, 30 °C
purified protein [4] = substrate: N[C@@H](Cc1ccc(O)cc1)C(=O)O; experiment: purified protein; type: biochemical, Prunella vulgaris; conditions: 10 mM α-ketoglutarate, 0.1 mM PLP, 0.75 mM EDTA, 125 mM potassium phosphate pH 8.0, 30 °C
purified protein [5] = substrate: O=C(O)C(=O)Cc1ccccc1; experiment: purified protein; type: biochemical, Prunella vulgaris; conditions: 5.5 mM L-Tyr as amino donor, 0.1 mM PLP, 0.75 mM EDTA, 125 mM potassium phosphate pH 8.0, 30 °C
purified protein [6] = substrate: N[C@@H](Cc1c[nH]c2ccccc12)C(=O)O; experiment: purified protein; type: biochemical, Prunella vulgaris; conditions: 10 mM α-ketoglutarate, 0.1 mM PLP, 0.75 mM EDTA, 125 mM potassium phosphate pH 8.0, 30 °C
purified protein [7] = substrate: O=C(O)CCC(=O)C(=O)O; experiment: purified protein; type: biochemical, Prunella vulgaris; conditions: 5.5 mM L-Tyr as amino donor, 0.1 mM PLP, 0.75 mM EDTA, 125 mM potassium phosphate pH 8.0, 30 °C
purified protein [8] = substrate: CC(=O)C(=O)O; experiment: purified protein; type: biochemical, Prunella vulgaris; conditions: 5.5 mM L-Tyr as amino donor, 0.1 mM PLP, 0.75 mM EDTA, 125 mM potassium phosphate pH 8.0, 30 °C

N[C@@H](Cc1ccccc1)C(=O)O [L-Phe]
Km [1]: 10.2 ± 0.05 mM

B1: PvTAT (tyrosine aminotransferase of Prunella vulgaris) (Prunella vulgaris) (protein)
chain: MELQSSAQELDAPTTITIKGILGLLVSSTDAKETGKRVISLGIGDPTAYSCFHVSNAAQEAVVEALRSQKFNGYAPTAGLPQAREAIAEYLSRDLPYKLPADSVYVTAGCTQAIEIALSVLARPGCNILLPRPCFPIYGLCASFRNIEVRYFDLHPEKGWEVDLDAVQDLADHNTVAMVIINPGNPCGNVYSHQHLRKVAEMAKRLGIVVIADEVYGQLAFGANPFVPMGIFGSIAPVVTLGSLSKRWLIPGWRLGWLVINDPDGSLMSPKFVERIKKYCDINGGPATFIQAAVPEIIEQTQEVFFRKTINILKQTSDICYQKVEDINGISCPTKPKGAMAFMVKLNISQMKDISDDIDFCFKLAKEESVIILPGIAVGLKNWIRITFAVEPSALEEAMERLKSFCERHSY
notes: E. coli Rosetta (DE3); cloning primers translate to N-terminus MELQSSAQ and C-terminus FCERHSY
Km (purified protein [2]): 4.72 ± 0.05 mM | Vmax (purified protein [2]): 1.06 µmol/min/mg | kcat (purified protein [2]): 0.73 ± 0.01 s⁻¹ | kcat/Km (purified protein [2]): 150 ± 5 M⁻¹ s⁻¹ | Km (purified protein [3]): 0.48 ± 0.004 mM | Vmax (purified protein [3]): 0.18 µmol/min/mg | kcat (purified protein [3]): 0.121 ± 0.01 s⁻¹ | kcat/Km (purified protein [3]): 295 ± 35 M⁻¹ s⁻¹ | Km (purified protein [4]): 0.40 ± 0.05 mM | Vmax (purified protein [4]): 1.74 µmol/min/mg | kcat (purified protein [4]): 1.19 ± 0.009 s⁻¹ | kcat/Km (purified protein [4]): 3030 ± 350 M⁻¹ s⁻¹ | Km (purified protein [5]): 3.90 ± 0.067 mM | Vmax (purified protein [5]): 0.43 µmol/min/mg | kcat (purified protein [5]): 0.3 ± 0.01 s⁻¹ | kcat/Km (purified protein [5]): 76 ± 1 M⁻¹ s⁻¹ | Km (purified protein [6]): 8.14 ± 1.04 mM | Vmax (purified protein [6]): 1.53 µmol/min/mg | kcat (purified protein [6]): 1.05 ± 0.08 s⁻¹ | kcat/Km (purified protein [6]): 130 ± 8 M⁻¹ s⁻¹ | Km (purified protein [7]): 10.80 ± 0.19 mM | Vmax (purified protein [7]): 0.92 µmol/min/mg | kcat (purified protein [7]): 0.63 ± 0.002 s⁻¹ | kcat/Km (purified protein [7]): 60 ± 8 M⁻¹ s⁻¹ | Km (purified protein [8]): 52.06 ± 1.38 mM | Vmax (purified protein [8]): 1.3 µmol/min/mg | kcat (purified protein [8]): 0.89 ± 0.01 s⁻¹ | kcat/Km (purified protein [8]): 20 ± 3 M⁻¹ s⁻¹

From publication PMC5501851, “A tyrosine aminotransferase involved in rosmarinic acid biosynthesis in Prunella vulgaris L” (Scientific Reports, 2017)
